Experimental findings from patent US20230340419A1, “METHODS FOR GENERATION OF MOUSE AND HUMAN URETERIC BUD ORGANOIDS AND COLLECTING DUCT ORGANOIDS” (University of Southern California, priority 2020, published 2023) are described below.

Common to all, as to format: cell-based, mouse
Experiment [1] concerns Wnt11-RFP UB organoid. Briefly: Stage III 1st round screening of growth factors and small molecules for UB organoid culture condition. To be noted: reagent added to FGF9 + C3 + TTNPB + GDNF; compared to that control group. The source says: We employed this Wnt11-RFP reporter system as a readout to screen for a culture condition that maintained the progenitor identity of UPCs in vitro. T-shaped UBs were manually isolated from E11.5 kidneys of Wnt11-RFP mice, and immediately embedded into Matrigel to set up a 3D culture platform that supported epithelial branching. In this 3D culture format, built on previous efforts towards the ex vivo culture of UB, hundreds of different combinations of growth factors and small molecules were tested (see also the Materials and Techniques section below for details under subheading “Screening for optimal UB culture condition”).
We systematically screened the optimal UB culture condition in four different stages (Stages I-IV).
In Stage III, based on the optimized recipe consisting of FGF9, TTNPB, CHIR99021 (3 μM) and GDNF, we preformed our 1st round of screening of growth factors and small molecules targeting major developmental pathways (e.g. TGF-β, BMP, Wnt, FGF, Hedgehog and Notch) and others. The branching morphogenesis, growth rate and Wnt11-RFP were recorded as readouts (Table 1). […] Representative images were taken at least for LDN193189, A83-01, and R-Spondin 1. These individual hits were then subjected to a 2nd round of screening to test their effects in various combinations, eventually leading to the identification of the optimal UB progenitor culture medium UBCM consisting of FGF9, TTNPB, CHIR99021 (3 μM), GDNF, LDN193189, A83-01, R-Spondin1, JAKI and SB202190.

In another experiment the test system is UB organoids. Briefly: 2nd round of CD differentiation condition screening (qRT-PCR of Aqp2 and Foxi1). To be noted: qRT-PCR, 7 days, under hBI+FGF9+Y27632 condition. As for the experimental part: The functions of the mature renal CD system are carried out by two major cell populations that are intermingled throughout the entire CD network. The more abundant principal cells (PCs) concentrate the urine and regulate Na^+/K^+ homeostasis via water and Na^+/K^+ transporters. The less abundant α- and β-intercalated cells (ICs) regulate normal acid-base homeostasis via secretion of H^+ or HCO3^− into the urine. The absence of an in vitro system recapitulating PC and IC development in an appropriate 3D context, constrains physiological exploration, disease modeling and drug screening on the renal CD system. With this limitation in mind, we developed a screen to establish conditions supporting the differentiation of CD organoids, assaying expression of Aqp2 and Foxi1, definitive markers for PC and IC lineages, respectively, by quantitative reverse transcription PCR (qRT-PCR), following 7 days of culture under variable but defined culture conditions (FIG. 2A).
Agonists or antagonists targeting major developmental pathways (e.g. TGF-β, BMP, Wnt, FGF, Hedgehog and Notch) were tested, together with hormonal inputs known to regulate PC or IC activity (aldosterone and vasopressin).

In experiment [2] the test system is Wnt11-RFP UB organoid. The experiment is described as follows: Withdrawal of individual components from UBCM (Stage IV validation). As to conditions: component withdrawn from UBCM. The source says:
To determine whether UBCM culture conditions enabled clonal growth from a single UPC, dissociated E11.5 UBs were embedded at clonal density in Matrigel and cultured in UBCM medium. Around 30% of the single cells self-organized into E11.5 UB-like budding structures within 5 days, though a smaller percentage (3-5%) maintained Wnt11-RFP (FIG. 1G), an efficiency similar to clonal organoid formation for Lgr5^+ intestinal stem cells. Importantly, the clonally-derived Wnt11-RFP^+ budding structures were identical to intact E11.5 UB-derived organoids in both branching morphology and growth rate (Table 3, FIG. 1H).
Lastly, in Stage IV, we asked whether each of the components in UBCM was essential.

B1: BMP7: growth factor tested in screening (protein, UniProt P18075 293-431, looked up)
Bone morphogenetic protein 7: STGSKQRSQNRSKTPKNQEALRMANVAENSSSDQRQACKKHELYVSFRDLGWQDWIIAPEGYAAYYCEGECAFPLNSYMNATNHAIVQTLVHFINPETVPKPCCAPTQLNAISVLYFDDSSNVILKKYRNMVVRACGCH
As to B1, the Wnt11-RFP entry with Wnt11-RFP UB organoid [1] is on record as “Better”. Also, in the experiment with UB organoids, the Aqp2 expression result was “dramatically increased” and the Foxi1 expression entry is on record as “dramatically increased”.

B2: FGF4: member of the FGF family (protein, UniProt P08620 31-206, looked up)
Fibroblast growth factor 4: APTAPNGTLEAELERRWESLVALSLARLPVAAQPKEAAVQSGAGDYLLGIKRLRRLYCNVGIGFHLQALPDGRIGGAHADTRDSLLELSPVERGVVSIFGVASRFFVAMSSKGKLYGSPFFTDECTFKEILLPNNYNAYESYKYPGMFIALSKNGKTKKGNRVSPTMKVTHFLPRL
For B2, the Wnt11-RFP entry in the experiment with Wnt11-RFP UB organoid [1] is given as “Worse”.

B3: GDNF: glial cell-derived neurotrophic factor (protein, UniProt P39905 78-211, looked up)
Glial cell line-derived …: SPDKQMAVLPRRERNRQAAAANPENSRGKGRRGQRGKNRGCVLTAIHLNVTDLGLGYETKEELIFRYCSGSCDAAETTYDKILKNLSRNRRLVSDKVGQACCRPIAFDDDLSFLDDNLVYHILRKHSAKRCGCI
In the case of B3, the “Effect of withdrawal of the component from UBCM on organoid growth” value with Wnt11-RFP UB organoid [2] was “growth arrest”.

B4: FGF8: member of the FGF family (protein, UniProt P55075 23-233, looked up)
Fibroblast growth factor 8: QEGPGRGPALGRELASLFRAGREPQGVSQQHVREQSLVTDQLSRRLIRTYQLYSRTSGKHVQVLANKRINAMAEDGDPFAKLIVETDTFGSRVRVRGAETGLYICMNKKGKLIAKSNGKGKDCVFTEIVLENNYTALQNAKYEGWYMAFTRKGRPRKGSKTRQHQREVHFMKRLPRGHHTTEQSLRFEFLNYPPFTRSLRGSQRTWAPEPR
Consider B4, for which the Wnt11-RFP result with Wnt11-RFP UB organoid [1] was “Worse”.

B5: FGF10: member of the FGF family (protein, UniProt O15520 38-208, looked up)
Fibroblast growth factor 10: QALGQDMVSPEATNSSSSSFSSPSSAGRHVRSYNHLQGDVRWRKLFSFTKYFLKIEKNGKVSGTKKENCPYSILEITSVEIGVVAVKAINSNYYLAMNKKGKLYGSKEFNNDCKLKERIEENGYNTYASFNWQHNGRQMYVALNGKGAPRRGQKTRRKNTSAHFLPMVVHS
Consider B5, for which, in the experiment with Wnt11-RFP UB organoid [1], the Organoid growth result is given as “Slower” and the Wnt11-RFP result is given as “Worse”.

B6: R-Spondin 1: UBCM component (protein, UniProt Q2MKA7 21-263, looked up)
R-spondin-1: SRGIKGKRQRRISAEGSQACAKGCELCSEVNGCLKCSPKLFILLERNDIRQVGVCLPSCPPGYFDARNPDMNKCIKCKIEHCEACFSHNFCTKCKEGLYLHKGRCYPACPEGSSAANGTMECSSPAQCEMSEWSPWGPCSKKQQLCGFRRGSEERTRRVLHAPVGDHAACSDTKETRRCTVRRVPCPEGQKRRKGGQGRRENANRNLARKESKEAGAGSRRRKGQQQQQQQGTVGPLTSAGPA
Consider B6, for which the Wnt11-RFP entry in the experiment on Wnt11-RFP UB organoid [1] was “Better”.
